IntAct's records for PubMed 21321230

B1: Netrin receptor DCC (Rattus norvegicus (Rat)), Q63155 (parent)
chain: MENSLGCVWVPKLAFVLFGASLLSAHLQVTGFQIKPFTSLHFVSEPSDAVTMRGGNVLLNCSAESDRGVPVIKWKKDGLILALGMDDRKQQLPNGSLLIQNILHSRHHKPDEGLYQCEASLGDSGSIISRTAKVMVAGPLRFLSQTESITAFMGDTVLLKCEVIGDPMPTIHWQKNQQDLNPIPGDSRVVVLPSGALQISRLQPGDSGVYRCSARNPASTRTGNEAEVRILSDPGLHRQLYFLQRPSNVIAIEGKDAVLECCVSGYPPPSFTWLRGEEVIQLRSKKYSLLGGSNLLISNVTDDDSGTYTCVVTYKNENISASAELTVLVPPWFLNHPSNLYAYESMDIEFECAVSGKPVPTVNWMKNGDVVIPSDYFQIVGGSNLRILGVVKSDEGFYQCVAENEAGNAQSSAQLIVPKPAIPSSSILPSAPRDVVPVLVSSRFVRLSWRPPAEAKGNIQTFTVFFSREGDNRERALNTTQPGSLQLTVGNLKPEAMYTFRVVAYNEWGPGESSQPIKVATQPELQVPGPVENLHAVSASPTSILITWEPPAYANGPVQGYRLFCTEVSTGKEQNIEVDGLSYKLEGLKKFTEYTLRFLAYNRYGPGVSTDDITVVTLSDVPSAPPQNVSLEVVNSRSIKVSWLPPPSGTQNGFITGYKIRHRKTTRRGEMETLEPNNLWYLFTGLEKGSQYSFQVSAMTVNGTGPPSNWYTAETPENDLDESQVPDQPSSLHVRPQTNCIIMSWTPPLNPNIVVRGYIIGYGVGSPYAETVRVDSKQRYYSIERLESSSHYVISLKAFNNAGEGVPLYESATTRSITDPTDPVDYYPLLDDFPTSGPDVSTPMLPPVGVQAVALTHEAVRVSWADNSVPKNQKTSDVRLYTVRWRTSFSASAKYKSEDTTSLSYTATGLKPNTMYEFSVMVTKNRRSSTWSMTAHATTYEAAPTSAPKDLTVITREGKPRAVIVSWQPPLEANGKITAYILFYTLDKNIPIDDWIMETISGDRLTHQIMDLSLDTMYYFRIQARNAKGVGPLSDPILFRTLKVEHPDKMANDQGRHGDGGYWPVDTNLIDRSTLNEPPIGQMHPPHGSVTPQKNSNLLVITVVTVGVLTVLVVVIVAVICTRRSSAQQRKKRATHSASKRKGSQKDLRPPDLWIHHEEMEMKNIEKPAGTDPAGRGSPIQSCQDLTPVSHSQSESQMGSKSASHSGQDTEEAGSSMSTLERSLAARRATRTKLMIPMEAQSNNPAVVSAIPVPTLESAQYPGILPSPTCGYPHPQFTLRPVPFPTLSVDRGFGAGRTVSEGPTAQQQPMLPPAQPEHPSSEEAPSRTIPTACVRPTHPLRSFANPLLPPPMSAIEPKVPYTPLLSQPGPTLPKTHVKTASLGLAGKARSPLLPVSVPTAPEVSEESHKPTEDPASVYEQDDLSEQMASLEGLMKQLNAITGSAF

Variants of: B1
Conditions: with myo10_human MYO10, Q9HD67
Chain of myo10_human MYO10, Q9HD67 (Q9HD67 whole entry): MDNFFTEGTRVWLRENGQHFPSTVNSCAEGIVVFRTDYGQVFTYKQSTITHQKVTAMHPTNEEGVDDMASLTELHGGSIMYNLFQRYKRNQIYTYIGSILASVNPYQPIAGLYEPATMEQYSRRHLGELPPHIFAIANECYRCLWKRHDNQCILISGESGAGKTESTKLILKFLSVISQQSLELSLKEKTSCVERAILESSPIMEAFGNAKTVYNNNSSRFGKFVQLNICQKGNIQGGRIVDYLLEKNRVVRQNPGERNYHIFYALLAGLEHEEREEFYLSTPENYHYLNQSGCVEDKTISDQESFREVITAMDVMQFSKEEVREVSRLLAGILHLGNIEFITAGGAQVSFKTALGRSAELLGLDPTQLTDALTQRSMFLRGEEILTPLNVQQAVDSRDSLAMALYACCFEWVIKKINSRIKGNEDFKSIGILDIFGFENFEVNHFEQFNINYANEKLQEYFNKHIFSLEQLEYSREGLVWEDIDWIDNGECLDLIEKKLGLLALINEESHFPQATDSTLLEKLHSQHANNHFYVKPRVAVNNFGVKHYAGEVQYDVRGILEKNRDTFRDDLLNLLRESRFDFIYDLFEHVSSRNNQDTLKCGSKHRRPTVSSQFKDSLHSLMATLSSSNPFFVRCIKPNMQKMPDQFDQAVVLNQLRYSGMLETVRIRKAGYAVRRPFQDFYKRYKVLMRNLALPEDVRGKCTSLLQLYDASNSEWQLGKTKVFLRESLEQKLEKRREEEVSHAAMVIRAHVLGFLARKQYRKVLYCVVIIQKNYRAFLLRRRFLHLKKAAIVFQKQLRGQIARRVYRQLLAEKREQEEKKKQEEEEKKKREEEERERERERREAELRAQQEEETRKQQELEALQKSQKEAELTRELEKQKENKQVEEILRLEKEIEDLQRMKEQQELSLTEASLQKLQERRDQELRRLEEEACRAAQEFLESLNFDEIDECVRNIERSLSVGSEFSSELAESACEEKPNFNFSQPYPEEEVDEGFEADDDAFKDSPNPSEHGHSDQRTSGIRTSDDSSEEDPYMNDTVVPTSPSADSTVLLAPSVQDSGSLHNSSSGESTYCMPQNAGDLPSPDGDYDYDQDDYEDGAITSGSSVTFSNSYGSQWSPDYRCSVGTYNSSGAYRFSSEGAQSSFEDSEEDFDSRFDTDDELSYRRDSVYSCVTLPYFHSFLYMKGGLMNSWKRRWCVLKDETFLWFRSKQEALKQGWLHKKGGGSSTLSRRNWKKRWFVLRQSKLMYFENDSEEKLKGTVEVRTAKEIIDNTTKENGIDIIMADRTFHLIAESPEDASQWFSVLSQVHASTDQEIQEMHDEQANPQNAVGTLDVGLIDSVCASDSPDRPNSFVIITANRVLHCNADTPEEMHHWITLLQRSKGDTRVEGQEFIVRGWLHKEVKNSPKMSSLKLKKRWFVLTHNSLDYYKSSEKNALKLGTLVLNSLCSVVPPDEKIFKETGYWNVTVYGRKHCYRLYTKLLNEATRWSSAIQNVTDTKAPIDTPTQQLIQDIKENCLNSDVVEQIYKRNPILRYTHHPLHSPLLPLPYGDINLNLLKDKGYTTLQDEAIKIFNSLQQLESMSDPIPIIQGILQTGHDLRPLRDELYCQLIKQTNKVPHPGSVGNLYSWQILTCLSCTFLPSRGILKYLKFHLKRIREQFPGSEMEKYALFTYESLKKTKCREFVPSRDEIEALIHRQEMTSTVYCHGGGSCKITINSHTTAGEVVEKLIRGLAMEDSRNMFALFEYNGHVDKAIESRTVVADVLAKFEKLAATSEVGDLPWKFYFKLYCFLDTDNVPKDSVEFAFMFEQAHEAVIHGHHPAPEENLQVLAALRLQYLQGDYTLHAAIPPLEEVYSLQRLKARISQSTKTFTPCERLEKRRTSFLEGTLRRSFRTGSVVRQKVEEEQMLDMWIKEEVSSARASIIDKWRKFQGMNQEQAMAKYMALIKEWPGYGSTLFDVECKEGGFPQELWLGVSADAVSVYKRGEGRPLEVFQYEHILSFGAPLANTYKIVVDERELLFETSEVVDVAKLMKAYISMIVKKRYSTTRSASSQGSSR

| effect of a mutation on the interaction | Variant |
| --- | --- |
| disrupting interaction strength | L1437A |
| disrupting interaction strength | L1433A |
